Molecular target: human MDM2, full length (CMV driven expression construct pCHDM1A) (human) (UniProt Q00987)
Assay: cell-based or functional assay

human MDM2, full length (CMV driven expression construct pCHDM1A) (human), sequence (Q00987 whole entry): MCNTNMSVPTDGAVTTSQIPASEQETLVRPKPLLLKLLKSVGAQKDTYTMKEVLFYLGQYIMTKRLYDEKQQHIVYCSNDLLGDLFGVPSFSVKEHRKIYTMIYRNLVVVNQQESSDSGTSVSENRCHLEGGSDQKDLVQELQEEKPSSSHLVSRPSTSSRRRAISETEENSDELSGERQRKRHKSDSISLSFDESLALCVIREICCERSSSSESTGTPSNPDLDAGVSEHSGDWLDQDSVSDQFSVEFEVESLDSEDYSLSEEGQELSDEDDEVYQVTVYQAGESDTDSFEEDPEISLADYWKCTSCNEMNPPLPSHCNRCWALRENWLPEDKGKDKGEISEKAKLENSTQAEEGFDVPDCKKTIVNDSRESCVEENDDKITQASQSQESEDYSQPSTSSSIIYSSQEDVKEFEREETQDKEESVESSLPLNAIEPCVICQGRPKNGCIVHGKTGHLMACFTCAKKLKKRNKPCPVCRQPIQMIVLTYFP

- transformed foci in MDM2/RAS REF cotransformation with p19^ARF added (40 foci without): 3 foci
Substance: mouse p19^ARF (complete ORF, expression construct in pVNic) (from UniProt Q64364 1-169)

— US6897197
